In patent US20190033295A1 (published 2019):

Biological target: HSP70 protein (UniProt P0DMV8 1-641)
Assay: SPR

Sequence of HSP70 protein (P0DMV8 whole entry): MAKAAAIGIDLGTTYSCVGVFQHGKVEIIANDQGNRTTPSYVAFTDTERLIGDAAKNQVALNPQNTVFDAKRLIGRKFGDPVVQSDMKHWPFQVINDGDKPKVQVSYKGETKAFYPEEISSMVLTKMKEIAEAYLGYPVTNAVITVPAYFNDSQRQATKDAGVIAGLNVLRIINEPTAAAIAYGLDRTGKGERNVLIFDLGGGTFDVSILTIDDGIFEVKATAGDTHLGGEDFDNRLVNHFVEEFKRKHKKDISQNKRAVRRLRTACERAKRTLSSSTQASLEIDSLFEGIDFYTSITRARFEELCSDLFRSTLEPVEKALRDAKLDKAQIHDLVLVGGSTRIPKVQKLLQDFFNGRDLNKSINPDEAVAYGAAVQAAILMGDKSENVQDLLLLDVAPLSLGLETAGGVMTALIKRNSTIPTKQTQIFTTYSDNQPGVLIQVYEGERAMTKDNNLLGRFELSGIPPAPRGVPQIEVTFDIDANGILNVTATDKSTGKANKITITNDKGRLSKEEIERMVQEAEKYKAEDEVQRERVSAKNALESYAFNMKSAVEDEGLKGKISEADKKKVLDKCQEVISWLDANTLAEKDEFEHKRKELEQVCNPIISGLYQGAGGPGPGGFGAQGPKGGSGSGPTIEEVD

B1: AIMP2-DX2 protein (other)
chain: MPMYQVKPYHGGGAPLRVELPTCMYRLPNVHGRSYGPAPGAGHVQDYGALKDIVINANPASPPLSLLVLHRLLCEHFRVLSTVHTHSSVKSVPENLLKCFGEQNKKQPRQDYQLGFTLIWKNVPKTQMKFSIQTMCPIEGEGNIARFLFSLFGQKHNAVNATLIDSWVDIAIFQLKEGSSKEKAAVFRSMNSALGKSPWLAGNELTVADVVLWSVLQQIGGCSVTVPANVQRWMRSCENLAPFNTALKLLK
Question: B1 was tested. Which Kd did it give?
Answer: 0.479 nM
